Measurements reported in patent US6875741 (Novo Nordisk, dated 2005).
No end group written: not given here.

Columns and labels:
[1] = target: T1, soluble human insulin receptor-immunoglobulin heavy chain chimera (human, UniProt P06213 28-956); assay: phage ELISA ratios compared
T1 construct: extracellular domain; Heterotetramer; also called IR; sIR-Fc; not shown: immunoglobulin heavy chain constant domains replacing the transmembrane and intr

[2] = target: T2, Soluble IGF-1R (R&D Systems, Cat. # 391-GR) (UniProt P08069 31-935, limits assumed); assay: phage ELISA ratios compared
T2 construct: extracellular domain; bought; also called sIGF-1R

[3] = target: T3, soluble human insulin receptor-immunoglobulin heavy chain chimera (human, UniProt P06213 28-956, limits assumed); assay: ratio of IC50 on rhIGF-1R (TR-FRET vs b-20E2) to IC50 on sIR-Fc (FP vs FITC-RP9)
T3 construct: extracellular domain; also called sIR-Fc; slR-Fc; not shown: immunoglobulin heavy chain constant domains

[4] = target: T4, human insulin receptor (HIR) (human, UniProt P06213 28-1382, limits assumed); assay: 125I-insulin competition, solubilized HIR
T4 construct: solubilized receptor from transfected cells

Binder | IR/IGF-1R ratio comparison [1] | IGF-1R/IR ratio comparison [2] | Binding Ratio IGF-1R/IR [3] | Kd [4]
AETSVQVGWIRLQSVWPGEHWNTVDPFYHKLSELLRGSGA [B6L-4-D7-IR] | 0.3 | 3.4 |  | 
FHENFYDWFVQRVSKK (Formula 1, Site 1 peptide) [H2C (D117)] |  |  | 9 | 
SAAQLFFQESFYDWFLRQVAESSQPN [H2CA-4-F11-IGFR] | 0.1 | 6.7 |  | 
RGKTAAVIVGRPADPFYHKLSELLQGG [B6Hα-3-E8-IR] | 0.2 | 4.8 |  | 
VGRASGFPENFYDWFGRQLSLQSGEQ [H2CA-4-H6-IGFR] | 0.1 | 14.6 |  | 
LSVALSFYDALGQLVAGEGRW [20E2A-3-A12-IGFR] | 0.3 | 3.9 |  | 
GSLDESFYDWFERQLGKKX (not fully specified; C-terminal Lig′, linker 24, C-C dimer) [S361] |  |  |  | 2200 nM
GIISQSCPESFYDWFAGQVSDPWWCW [H2CA-4-G9-IGFR] | 0.1 | 16 |  | 
TLRSPTFYDWLEMVLTHGQGG [20E2B-1-A8-IGFR] | 0.2 | 5 |  | 
DYKDFYDAIDQLVRGSARAGGTRD (Formula 2, Site 1 peptide) [20E2 (D118)] |  |  | 1.9 | 
SACQFDCHENFYDWFARQVSGGAAYG [H2CA-4-H8-IGFR] | 0.1 | 9.4 |  | 
SGAKVIVVTGDSGDPFYHKLSELLQGS [B6Hα-2-C10-IR] | 0.2 | 5.3 |  | 
GCAVVEEAERSRGDPFYHKLSELIQGC [B6Hα-3-E7-IR] | 0.2 | 4.3 |  | 
XGSLDESFYDWFERQLGKK (N-terminal Ald, linker 19, N-N dimer) [S376] |  |  |  | 160 nM
RFDPFYSYFVNLLGASA [NNRPγ-4-A7-IR] | 0.2 | 4.9 |  | 
CGFHENFYDWFVRQVSKK (also: N-N dimer, two chains linked at Cys1, N-N dimer) [S170] |  |  |  | 700 nM
DWLQRNANFYDWFVAEL (not fully specified; C-terminal Lig′, linker 14) [S300] |  |  |  | 50 nM
AVRATRFDEAFYDWFVRQISDGQGNK [H2CA-4-F6-IGFR] | 0.2 | 6.4 |  | 
EEDWLQRNANFYDWFVAELX (C-terminal Lig′ (printed LiG′), linker 23, C-C dimer) [S381] |  |  |  | 120 nM
VGTVAGFYDAIAQLVARASRV [20E2A-3-C7-IGFR] | 0.2 | 5.1 |  | 
XGSLDESFYDWFERQLGKK (not fully specified; N-terminal Lig′, linker 24, N-N dimer) [S362] |  |  |  | 110 nM
VGYQGQGDENFYDWFIRQVSGRLGVQ [H2CA-4-F5-IGFR] | 0.1 | 12.3 |  | 
GIISQSCPESFYDWFAGQVSDPWWCW (Formula 1, Site 1 peptide; also called H2CA-4-G9-IGFR; S326) [G33] |  |  | 1.3 | 
PPWGARFYDAIEQLVFDNL (Formula 2, Site 1 peptide) [RP4] |  |  | 476 | 
GSLDESFYDWFERQLG (Formula 1, Site 1 peptide; also called H2C-PD1-IGFR) [RP9] |  |  | 1.4 | 
VMDARDDPFYHKLSELVT [RP16] |  |  | 0.15 | 
SRAKVEAEMPDSGDPFYHKLSELLASG [B6Hα-1-A3-IR] | 0.3 | 3.3 |  | 
SQAGSAFYAWFDQVLRTV (Formula 1, Site 1 peptide) [RP15] |  |  | 25 | 
XGSLDESFYDWFERQLGKK (not fully specified; N-terminal Ald, linker 17, N-N dimer) [S374] |  |  |  | 180 nM
